From patent US20250082755A1 come the findings set out here.

The target in the assay is CD123 expressed on MOLM13 AML cells (UniProt P26951). Put plainly: cell-based or functional assay.
UniProt P26951, sequence (P26951 19-378 limits assumed): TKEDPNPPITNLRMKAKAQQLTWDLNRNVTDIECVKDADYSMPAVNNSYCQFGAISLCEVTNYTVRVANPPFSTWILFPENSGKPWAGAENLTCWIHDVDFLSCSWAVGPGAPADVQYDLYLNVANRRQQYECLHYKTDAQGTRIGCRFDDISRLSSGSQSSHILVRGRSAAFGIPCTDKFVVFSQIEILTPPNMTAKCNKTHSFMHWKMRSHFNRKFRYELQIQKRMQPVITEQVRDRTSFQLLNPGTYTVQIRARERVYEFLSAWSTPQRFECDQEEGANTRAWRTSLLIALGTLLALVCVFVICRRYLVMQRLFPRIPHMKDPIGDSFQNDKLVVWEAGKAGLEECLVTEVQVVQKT

Regarding IL3-K110E-41BBcostim (receptor), the TIB153 % CD69 activation: MOLM-13-WT/MOLM-13 CD123KO is 1.28. Consider “IL3-K110E-CD28costim (SEQ ID NO: 29) (receptor)”, for which the TIB153 % CD69 activation: MOLM-13-WT/MOLM-13 CD123KO worked out at 1.03.

Substance “IL3-K110E-nocostim (SEQ ID NO: 27) (receptor)” showed a TIB153 % CD69 activation: MOLM-13-WT/MOLM-13 CD123KO of 1.06.

“IL3-WT-41BBcostim (SEQ ID NO: 25) (receptor)” registered a CD69 activation, Average MOLM13-WT fold change over MOLM-CD123KO of 3.84 fold; a CD69 activation, MOLM13 fold change over MOLM-CD123KO, Replicate 1 of 4.74 fold; a CD69 activation, MOLM13 fold change over MOLM-CD123KO, Replicate 2 of 2.94 fold; a TIB153 % CD69 activation: MOLM-13-WT/MOLM-13 CD123KO of 4.74.
